Assay results taken from patent publication US7851180B2, “Microorganism producing L-methionine precursor and the method of producing L-methionine precursor using the microorganism” (CJ Cheiljedang Corporation, priority 2008, dated 2010).

Tests used:
W3-BTJA strain = experiment: O-succinylhomoserine production of feed back resistant metA in W3-BTJA strain, Erlenmeyer flask culture; assay type: cell-based, E. coli; conditions: for O-succinylhomoserine production (%): metA plasmid in W3-BTJA strain, flask culture 64 hours, HPLC, wild type = 100%; for O-succinylhomoserine production compared with wild type: metA vector in W3-BTJA strain, flask culture
Method: The vector was electroporated into W3-BTJA strain and production capacity of the strain was checked using Erlenmeyer flask culture as described in Example 2-1, O-succinylhomoserine production of modified strain is measured, based on 100% of O-succinylhomoserine production of wild type strain.
To measure the methionine precursor production of each strain constructed in Example 1, Erlenmeyer flask culture was performed. Each strain was cultured on LB plate media at 31° C. for overnight. A single colony was inoculated in 3 ml of LB medium, followed by culture at 31° C. for 5 hours. The culture solution was 200 fold diluted in 250 ml Erlenmeyer flask containing 25 ml of methionine precursor producing medium, followed by culture at 31° C., 200 rpm for 64 hours. HPLC was performed to compare with methionine precursor production capacity (Table 2 and Table 3).

[1] = test system: homoserine O-succinyltransferase (metA); experiment: Feed back resistance of mutant metA in the presence of 100 mM methionine; assay type: biochemical, Escherichia coli; conditions: w/ 100 mM Met; control without Met = 100
Method: To increase production of O-succinylhomoserine which is L-methionine precursor, overexpression of feed-back resistant metA gene encoding homoserine O-succinyltransferase was performed. PCT/US2007/009146 discloses the method for preparing feed-back resistant metA gene and activity of that.
The sequence of the feed-back resistant metA 10 gene is represented in SEQ. ID. NO: 13 and the amino acid sequence encoding by the gene is represented in SEQ. ID. NO: 14. The sequence of metA 11 gene is represented in SEQ. ID. NO: 15 and the amino acid sequence encoding by the gene is represented in SEQ. ID. NO: 16. The sequence of metA 32 gene is represented in SEQ. ID. NO: 17 and the amino acid sequence encoding by the gene is represented in SEQ. ID. NO: 18. The sequence of metA 37 gene is represented in SEQ. ID. NO: 19 and the amino acid sequence encoding by the gene is represented in SEQ. ID. NO: 20. The sequence of metA 41 gene is represented in SEQ. ID. NO: 21 and the amino acid sequence encoding by the gene is represented in SEQ. ID. NO: 22 (PCT/US2007/009146).

B1: w.t.: wild type metA, homoserine O-succinyltransferase of E. coli (protein, UniProt P07623 2-309, looked up)
Homoserine …: PIRVPDELPAVNFLREENVFVMTTSRASGQEIRPLKVLILNLMPKKIETENQFLRLLSNSPLQVDIQLLRIDSRESRNTPAEHLNNFYCNFEDIQDQNFDGLIVTGAPLGLVEFNDVAYWPQIKQVLEWSKDHVTSTLFVCWAVQAALNILYGIPKQTRTEKLSGVYEHHILHPHALLTRGFDDSFLAPHSRYADFPAALIRDYTDLEILAETEEGDAYLFASKDKRIAFVTGHPEYDAQTLAQEFFRDVEAGLDPDVPYNYFPHNDPQNTPRASWRSHGNLLFTNWLNYYVYQITPYDLRHMNPTLD
O-succinylhomoserine production (%) (W3-BTJA strain): 100% | % of specific activity retention [1]: 7.6%

B2: #11: feed-back resistant metA 11 gene product, amino acid sequence SEQ. ID. NO: 16 (protein, listed as Escherichia coli)
chain: MPIRVPDELPAVNFLREENVFVMSTSRASGQEIRPLKVLILNLMPKKIETENQFLRLLSNSPLQVDIQLLRIDSRESRNTPAEHLNNFYCNFEDIQDQNFDGLIVTGAPLGLVEFNDVAYWPQIKQVLEWSKDHVTSTLFVCWAVQAALNILYGIPKQTRTEKLSGVYEHHILHPHALLTRGFDDSFLAPHSRYADFPAALIRDYTDLEILAETEEGDAYLFASKDKRIAFVTGHPEYDAQTLAQEFFRDVEAGLDPDVPYNYFPHNDPQNTPRESWRSHGNLLFTNWLNYYVYQIAPYDLRHMYPTLD
O-succinylhomoserine production (%) (W3-BTJA strain): 425% | O-succinylhomoserine production compared with wild type (W3-BTJA strain): the most effective production | % of specific activity retention [1]: 94%

B3: #32: feed-back resistant metA 32 gene product, amino acid sequence SEQ. ID. NO: 18 (protein, listed as Escherichia coli)
chain: MPIRVPDELPAVNFLREENVFVMTTSRASGQEIRPLKVLILNLMPKKIETENQFLRLLSNSPLQVDIQLLRIDSRESRNTPAEHLNNFYCNFEDIQDQNFDGLIVTGAPLGLVEFNDVAYWPQIKQVLEWSKDHVTSTLFVCWAVQAALNILYGIPKQTRTEKLSGVYEHHILHPHALLTRGFDDSFLAPHSRYADFPAALIRDYTDLEILAETEEGDAYLFASKDKRIAFVTGHPEYDAQTLAQEFFRDVEAGLDPDVPYNYFPHNDPQNTPRASWRSHGNLLFTNWLHYYVYQITPYDLRHMNPTLD
O-succinylhomoserine production (%) (W3-BTJA strain): 396% | O-succinylhomoserine production compared with wild type (W3-BTJA strain): the most effective production | % of specific activity retention [1]: 79%

B4: #37: feed-back resistant metA 37 gene product, amino acid sequence SEQ. ID. NO: 20 (protein, listed as Escherichia coli)
chain: MPIRVPDELPAVNFLREENVFVMTTSRAPGQEIRPLKVLILNLMPKKIETENQFLRLLSNSPLQVDIQLLRIDSRESRNTPAEHLNNFYCNFEDIQDQNFDGLIVTGAPLGLVGFNDVAYWPQIKQVLEWSKDHVTSTLSVCWAVQAALNILYGIPKQTRTEKLSGVYEHHILHPHALLTRGFDDSFLAPHSRYADFPAALIRDYTDLEILAETEEGDAYLFASKDKRIAFVTGHPEYDAQTLAQEFFRDVEAGLDPDVPYNYFPHNDPQNTPRASWRSHGNLLFTNWLNYYVYQITPYDLRHMNPTLD
O-succinylhomoserine production (%) (W3-BTJA strain): 227% | % of specific activity retention [1]: 83%

B5: #10: feed-back resistant metA 10 gene product, amino acid sequence SEQ. ID. NO: 14 (protein, listed as Escherichia coli)
chain: MPIRVPDELPAVNFLREENVFVMTTSRASGQEIRPLKVLILNLMPKKIETENQFLRLLSNSPLQVDIQLLRIDSRESRNTPAEHLNNFYCNFEDIQDQNFDGLIVTGAPLGLVEFNDVAYWPQIKQVLEWSKDHVTSTLFVCWAVQAALNILYGIPKQTRTEQLSGVYEHHILHPHALLTRGFDDSFLAPHSRYADFPAALIRDYTDLEILAETEEGDAYLLASKDKRIAFVTGHPEYDAQTLAQEFFRDVEAGLDPDVPYNYFPHNDPQNTPRASWRSHGNLLFTNWLNYYVYRITPYDLRHMNPTLD
O-succinylhomoserine production (%) (W3-BTJA strain): 392% | O-succinylhomoserine production compared with wild type (W3-BTJA strain): the most effective production | % of specific activity retention [1]: 97%

B6: #41: feed-back resistant metA 41 gene product, amino acid sequence SEQ. ID. NO: 22 (protein, listed as Escherichia coli)
chain: MPIRVPDELPAVNFLREENVFVMTTSRASGQEIRPLKVLILNLMPKKIETENQFLRLLSNSPLQVDIQLLRIDSRESRSTPAEHLNNFYCNFEDIQDQNFDGLIVTGAPLGLVEFNDVAYWPQIKQVLEWSKDHVTSTLIVCWAVQAALNILYGIPKQTRTEKLSGVYEHHILHPHALLTRGFDDSFLAPHSRYADFPAALIRDYTDLEILAETEEGDAYLFASKDKRIAFVTGHPEYDAQTLAQEFFRDVEAGLDPDVPYNYFPHNDPQNTPRASWRSHGNLLFTNWLNNYVYQITPYDLRHLNPTLD
O-succinylhomoserine production (%) (W3-BTJA strain): 389% | % of specific activity retention [1]: 74%
